Laboratory results reported in patent US20160002357A1 (Pfizer, published 2016).
Changes are numbered by the printed parent chain.

B1: anti-P-cadherin scFv 153 alanine-mutant H1.1-Ala (scFv, V domains shown)
VH: EVQLVQSGAEVKKPGASVKVSCKASAYTFTSYGISWVRQAPGQGLEWMGWISAYNGNTNYAQKLQGRVTMTTDTSTSTAYMELRSLRSDDTAVYYCATIDTANAFGIWGQGTMVTVSS
VL: QSVLTQPPSVSAAPGQKVTISCSGSSSNIGNNYVSWYQQLPGTAPKLLIYDNNKRPSGIPDRFSGSKSGTSATLGITGLQTGDEADYYCGTWDSSLSGVVFGGGTKLTVL
notes: scFv on phage
B2: anti-P-cadherin scFv 153 alanine-mutant H2.1-Ala (scFv, V domains shown)
VH: B1 VH with A26G, W50A
VL: B1 VL
notes: scFv on phage
B3: anti-P-cadherin scFv 153 alanine-mutant H2.2-Ala (scFv, V domains shown)
VH: B1 VH with A26G, I51A
VL: B1 VL
notes: scFv on phage
B4: anti-P-cadherin scFv 153 alanine-mutant H2.7-Ala (scFv, V domains shown)
VH: B1 VH with A26G, G56A
VL: B1 VL
notes: scFv on phage
B5: anti-P-cadherin scFv 153 alanine-mutant H2.3-Ala (scFv, V domains shown)
VH: B1 VH with A26G, S52A
VL: B1 VL
notes: scFv on phage
B6: anti-P-cadherin scFv 153 alanine-mutant H1.10-Ala (scFv, V domains shown)
VH: B1 VH with A26G, S35A
VL: B1 VL
notes: scFv on phage
B7: anti-P-cadherin scFv 153 alanine-mutant H2.9-Ala (scFv, V domains shown)
VH: B1 VH with A26G, T58A
VL: B1 VL
notes: scFv on phage
B8: anti-P-cadherin scFv 153 alanine-mutant H1.9-Ala (scFv, V domains shown)
VH: B1 VH with A26G, I34A
VL: B1 VL
notes: scFv on phage
B9: anti-P-cadherin scFv 153 alanine-mutant H2.5-Ala (scFv, V domains shown)
VH: B1 VH with A26G, Y54A
VL: B1 VL
notes: scFv on phage
B10: anti-P-cadherin scFv 153 alanine-mutant H1.2-Ala (scFv, V domains shown)
VH: B1 VH with A26G, Y27A
VL: B1 VL
notes: scFv on phage
B11: anti-P-cadherin scFv 153 alanine-mutant H1.3-Ala (scFv, V domains shown)
VH: B1 VH with A26G, T28A
VL: B1 VL
notes: scFv on phage
B12: anti-P-cadherin scFv 153 alanine-mutant H2.6-Ala (scFv, V domains shown)
VH: B1 VH with A26G, N55A
VL: B1 VL
notes: scFv on phage
B13: anti-P-cadherin scFv 153 alanine-mutant H1.8-Ala (scFv, V domains shown)
VH: B1 VH with A26G, G33A
VL: B1 VL
notes: scFv on phage
B14: anti-P-cadherin scFv 153 alanine-mutant H1.6-Ala (scFv, V domains shown)
VH: B1 VH with A26G, S31A
VL: B1 VL
notes: scFv on phage
B15: anti-P-cadherin scFv 153 alanine-mutant H1.7-Ala (scFv, V domains shown)
VH: B1 VH with A26G, Y32A
VL: B1 VL
notes: scFv on phage
B16: anti-P-cadherin scFv 153 alanine-mutant H2.13-Ala (scFv, V domains shown)
VH: B1 VH with A26G, Q62A
VL: B1 VL
notes: scFv on phage
B17: anti-P-cadherin scFv 153 alanine-mutant H1.5-Ala (scFv, V domains shown)
VH: B1 VH with A26G, T30A
VL: B1 VL
notes: scFv on phage
B18: anti-P-cadherin scFv 153 alanine-mutant H2.8-Ala (scFv, V domains shown)
VH: B1 VH with A26G, N57A
VL: B1 VL
notes: scFv on phage
B19: anti-P-cadherin scFv 153 alanine-mutant H1.4-Ala (scFv, V domains shown)
VH: B1 VH with A26G, F29A
VL: B1 VL
notes: scFv on phage
B20: anti-P-cadherin scFv 153 alanine-mutant H2.11-Ala (scFv, V domains shown)
VH: B1 VH with A26G, Y60A
VL: B1 VL
notes: scFv on phage
B21: anti-P-cadherin scFv 153 alanine-mutant H2.10-Ala (scFv, V domains shown)
VH: B1 VH with A26G, N59A
VL: B1 VL
notes: scFv on phage

Biological target: T1, P-cadherin-ECD1-3-Fc protein (human P-cadherin-Fc) (human, UniProt P22223 108-440)
T1 construct: Construct was expressed with signal peptide and pro-peptide (PACE co-transfected to process the propeptide); not shown: hinge and CH2 and CH3 domains of human IgG1
Assay: phage scFv ELISA, coated P-cadherin-ECD1-3-Fc
Description: P-cadherin-ECD1-3-Fc protein or negative control protein was coated overnight at 4° C. on 96-well Nunc Maxisorp® plates (Thermo Fisher Scientific, Madison, Conn.) at a concentration of 2 μg/mL in PBS+Ca²⁺ and Mg²⁺. Plates were washed three times using PBS+Ca²⁺ and Mg²⁺ and blocked for 1 hour at room temperature in 3% milk/PBS+Ca²⁺ and Mg²⁺. Phage samples prepared as described above were added to the blocked plates for 1 hour at room temperature. Plates were washed three times with PBS+Ca²⁺ and Mg²⁺ prior to the addition of secondary antibody (anti M13-HRP 1:2000, GE Healthcare, Piscataway, N.J.). Plates were incubated for a further 1 hour at room temperature and washed six times with PBS+Ca²⁺ and Mg²⁺. Signal was developed using TMB (SurModics, Eden Prairie, Minn.), the reaction stopped with H₂SO₄ and the absorbance read at 450 nm on an EnVision® plate reader (Perkin Elmer, Waltham, Mass.).

T1 sequence (P22223 108-440): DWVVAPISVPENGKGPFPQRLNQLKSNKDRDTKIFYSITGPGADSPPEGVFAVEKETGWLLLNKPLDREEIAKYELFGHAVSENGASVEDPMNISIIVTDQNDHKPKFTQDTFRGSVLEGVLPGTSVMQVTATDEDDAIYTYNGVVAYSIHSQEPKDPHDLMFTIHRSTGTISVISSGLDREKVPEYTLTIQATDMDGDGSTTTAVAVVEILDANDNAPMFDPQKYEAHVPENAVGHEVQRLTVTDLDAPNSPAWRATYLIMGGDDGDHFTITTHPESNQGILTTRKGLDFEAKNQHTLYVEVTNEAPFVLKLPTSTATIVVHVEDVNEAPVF

Binder	% of binding of Clone #153 to human P-cadherin-Fc	Human P-cadherin-Fc binding (OD450)	Z Score
B1	135%	1.79 OD450	0.7
B2	103%	1.37 OD450	0.1
B3	166%	2.2 OD450	1.4
B4	114%	1.5 OD450	0.3
B5	138%	1.83 OD450	0.8
B6	161%	2.13 OD450	1.3
B7	154%	2.03 OD450	1.1
B8	167%	2.21 OD450	1.4
B9	34%	0.45 OD450	-1.4
B10	179%	2.36 OD450	1.7
B11	174%	2.3 OD450	1.6
B12	80%	1.06 OD450	-0.4
B13	27%	0.36 OD450	-1.5
B14	149%	1.97 OD450	1
B15	129%	1.71 OD450	0.6
B16	152%	2.01 OD450	1.1
B17	155%	2.05 OD450	1.2
B18	162%	2.14 OD450	1.3
B19	177%	2.33 OD450	1.6
B20	163%	2.15 OD450	1.3
B21	172%	2.27 OD450	1.5
